Target: T1, MhAgo_DM (Marinitoga hydrogenitolerans, UniProt A0A1M5A5Z8 1-640, D445A;D515A)
T1 sequence: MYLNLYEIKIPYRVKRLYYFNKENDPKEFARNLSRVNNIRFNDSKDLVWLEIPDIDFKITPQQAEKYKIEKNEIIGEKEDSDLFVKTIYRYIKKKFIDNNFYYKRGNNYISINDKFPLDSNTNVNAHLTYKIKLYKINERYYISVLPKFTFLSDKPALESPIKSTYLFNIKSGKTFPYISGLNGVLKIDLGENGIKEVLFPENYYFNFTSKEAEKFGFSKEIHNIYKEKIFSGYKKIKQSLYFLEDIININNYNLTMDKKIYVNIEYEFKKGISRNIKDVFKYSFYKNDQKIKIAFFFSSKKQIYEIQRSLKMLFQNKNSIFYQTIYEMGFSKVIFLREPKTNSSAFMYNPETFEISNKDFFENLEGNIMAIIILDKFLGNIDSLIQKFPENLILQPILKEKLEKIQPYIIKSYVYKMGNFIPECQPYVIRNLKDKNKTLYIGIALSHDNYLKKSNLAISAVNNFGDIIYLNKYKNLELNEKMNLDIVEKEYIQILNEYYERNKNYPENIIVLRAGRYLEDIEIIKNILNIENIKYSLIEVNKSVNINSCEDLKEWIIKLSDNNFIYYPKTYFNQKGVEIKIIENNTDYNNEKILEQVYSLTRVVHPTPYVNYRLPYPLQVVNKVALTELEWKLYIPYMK
Experiment: EMSA

B1: 5'OH-gDNA:tDNA duplex (dsDNA)
DNA 1: CGAGGTAGTAGGTTGTAT
DNA 2: AAACGACGGCCAGTGCCAAGCTTACTATACAACCTACTACCTCGT
modifications: guide 5'OH
- Kd: 119 ± 4.8 nM

B2: 5'P-gDNA:tDNA duplex (dsDNA)
DNA 1: CGAGGTAGTAGGTTGTAT
DNA 2: B1 DNA 2
modifications: guide 5' phosphate
- Kd: 145 ± 11.5 nM

B3: 5'OH-gRNA:tDNA duplex (DNA:RNA)
RNA: CGAGGUAGUAGGUUGUAU
DNA: B1 DNA 2
modifications: guide 5'OH
- Kd: 121 ± 4.66 nM

B4: 5'P-gRNA:tDNA duplex (DNA:RNA)
RNA: CGAGGUAGUAGGUUGUAU
DNA: B1 DNA 2
modifications: guide 5' phosphate
- Kd: 148 ± 4.52 nM

B5: 5'OH-gRNA:tRNA duplex (dsRNA)
RNA 1: CGAGGUAGUAGGUUGUAU
RNA 2: AAACGACGGCCAGUGCCAAGCUUACUAUACAACCUACUACCUCGU
modifications: guide 5'OH
- Kd: 125 ± 6.83 nM

B6: 5'OH-gDNA:tRNA duplex (DNA:RNA)
DNA: CGAGGTAGTAGGTTGTAT
RNA: B5 RNA 2
modifications: guide 5'OH
- Kd: 102 ± 1.69 nM

B7: 5'P-gRNA:tRNA duplex (dsRNA)
RNA 1: CGAGGUAGUAGGUUGUAU
RNA 2: B5 RNA 2
modifications: guide 5' phosphate
- Kd: 232 ± 5.07 nM

B8: 5'P-gDNA:tRNA duplex (DNA:RNA)
DNA: CGAGGTAGTAGGTTGTAT
RNA: B5 RNA 2
modifications: guide 5' phosphate
- Kd: 140 ± 5.37 nM

Reference: publication doi:10.1101/2021.10.11.464003
